# Measured values: article PMC11870394 (bioRxiv, 2025)
# B1: RSV-3301 Fab (Fab, V domains shown)
# VH: QVQLVESGPTLVKPTQTLTLTCSFSGFSLSTRGVGVGWVRQPPGKALECLGFTYWDGDEYYSPSLRNRVTISKDTSKNQVVLTLTNMDPVDTATYFCVHSDLYDRGGYYLYYFDYWGQGTLVTVSS
# VL: DIRVTQSPSSLSASVGDRVTITCRASQTIASYVNWYQQKPGRAPELLIYAASILQSGVPSRFSGRGSGTDFTLTINGLQPEDFATYYCQQSYSSPWTFGQGTKVEIK
# B2: RSV-2245 Fab (Fab, V domains shown)
# VH: QVQLVQSGAEVKKPGASVKVSCKASGYSFSSFGVSWVRQAPGQGLEWLGWISAYNGNTDYAQKVQGRLTMTTDTSTNTAYMELRNLRSDDTAVYYCARDPPASAAAMFDYWGQGTLVTVSS
# VL: not shown
# Target: RSV prefusion F (PR-DM) (respiratory syncytial virus A, UniProt P03420)
# Experiment: cryo-EM structure
row,Binder,stoichiometry N [Fab per F trimer]
1,B1,3
2,B2,3
